Entries after “also recorded” stand apart in the source; their conditions may differ.
Assays:
[1] = test system: N-terminal CBM33 domain of CelS2; test: Metal reactivation of EDTA treated N-terminal CBM33 domain of CelS2 (HPAEC, FIG. 31); type: biochemical, Streptomyces coelicolor A3(2); details: for reactivation of EDTA treated enzyme: 10 μM metal ion, 20 μM EDTA, 1.7 mM reduced glutathione, pH 6.6
Method: […]; Mg^2+, Fe^3+, Zn^2+, Co^2+, Ca^2+, Cu^2+). […].
To identify which is the preferred metal for CelS2, the activity of the N-terminal CBM33 domain of CelS2 was inhibited by EDTA and different metals were tested to reactivate the protein.

[2] = Chitin solubilization by CBP21: soluble oxidized products (MALDI-TOF MS, UHPLC); type: biochemical; details: 2.0 mg/mL beta-chitin, 1.0 mM ascorbic acid, 20 mM Tris pH 8.0, 37° C.
Method: Two microliter of a 9 mg/mL mixture of 2,5-dihydroxybenzoic acid (DHB) in 30% acetonitrile was applied to a MTP 384 target plate ground steel TF (Bruker Daltonics). One microliter sample was then mixed into the DHB droplet and dried under a stream of air. The samples were analyzed with an Ultraflex MALDI-TOF/TOF instrument (Bruker Daltonics GmbH, Bremen, Germany) with a Nitrogen 337 nm laser beam. The instrument was operated in positive acquisition mode and controlled by the FlexControl 3.3 software package. All spectra were obtained using the reflectron mode with an acceleration voltage of 25 kV, a reflector voltage of 26, and pulsed ion extraction of 40 ns in the positive ion mode. The acquisition range used was from m/z 0 to 7000. […] Post-source decay (PSD) spectra using the Bruker Daltonics LIFT system were recorded at 8 kV precursor ion acceleration voltage and fragment acceleration (LIFT voltage 19 kV). […]
UHPLC was run on an Agilent 1290 Infinity UHPLC system equipped with diode array detector, set up with a Waters Acquity UPLC BEH amide column (2.1×150 mm with a 2.1×30 mm pre column both having a column material particle size of 1.7 μm) using 5 μL sample injections. […] Eluted oligosaccharides were monitored by recording absorption at 205 nm. Chromatograms were recorded, integrated and analysed using the ChemStation rev. […]

[3] = 0.1 mg/mL beta-chitin, 0.5 μM ChiC, 1.0 mM ascorbic acid, pH 8.0
Method: CBP21-like and GH61 proteins contain two highly conserved histidines (H28 and H114 in CBP21), one of which is the N-terminal histidine of the secreted mature protein.
Isocratic HPLC was run on a Dionex Ultimate 3000 HPLC system set up with a 4.6×250 mm Amide-80 column (Tosoh Bioscience, Montgomeryville, Pa., USA) with an Amide-80 guard column. The mobile phase consisted of 70% acetonitrile: 30% MilliQ H2O and the flow rate was 0.7 ml/min. Eluted oligosaccharides were monitored by recording absorption at 190 nm. Chromatograms were recorded, integrated and analysed using the Chromeleon 6.8 chromatography software (Dionex). […] A standard solution containing 0.10 mM (GlcNAc)2 was analyzed at regular intervals during the sample series, and the resulting average values (displaying standard deviations of less than 3%) were used for calibration.
For the sake of experimental simplicity and throughput, the degradation of chitin in reactions with ChiC and CBP21 was quantitatively assessed by measuring concentration of the dominant product, (GlcNAc)2, only.
The reaction was incubated at 37° C. and sampled at regular time intervals. Chitin degradation was measured by determining the concentration of (GlcNAc)2 by HPLC.

[4] = Filter paper degradation by […] with CelS2 or E7 (FIG. 20), sugars by HPLC; type: biochemical
Method: Reactions were run in 50 mM Bis-tris/HCl pH 6.5, 1 mM MgCl2, at 50° C. and 900 rpm (horizontal agitation). Control reactions containing the cellulosic substrate suspended in the same buffer as used for the enzyme assays gave no detectable signal for either glucose or cellobiose.
The mobile phase consisted of 5 mM sulfuric acid and the flow rate used was 1.0 ml/min. Eluted glucose and cellobiose were monitored by recording refractive index. Quantification was obtained by running glucose and cellobiose standards.
Assays performed to evaluate the function of E7 and CelS2 were set up using a variety of cellulosic substrates (AVICEL®, filter paper and steam exploded wood chips from poplar), at either pH 5.5 (20 mM sodium acetate buffer), 6.5 (20 mM Bis-Tris buffer) or 8.0 (20 mM Tris buffer) in reaction mixtures containing 1.0 mM MgCl2.

[5] = Soluble products released from AVICEL by CBM33 proteins (MALDI-TOF MS, HPAEC); type: biochemical; details: with external electron donor (ascorbic acid or reduced glutathione)
Method: The main peaks are annotated with molecular weight and degree of polymerization (DP).
The DP of the oxidized cellooligosaccharides is indicated by n, where n=3 (the shortest labelled oxidized cellooligosaccharide has a DP of three (=n)). […] Peak annotation was performed by comparing the chromatogram with the chromatogram obtained for a chemically prepared mixture of oxidized cellooligosaccharides with lengths varying from DP1 to DP10.
The main peaks are annotated with molecular weight and degree of polymerization (DP). All annotated peaks are Na adducts of native cellooligosaccharides, oxidized cellooligosaccharides (denoted “ox”) or the sodium salts of oxidized cellooligosaccharides.
Products were analyzed after 20 hours of incubation in 20 mM ammonium acetate buffer pH 5.0, 1 mM MgCl2 at 50° C. and 900 rpm (vertical agitation).
Separation of native and oxidized cellooligosaccharides was achieved using a Dionex Bio-LC equipped with a CarboPack PA1, a column temperature of 30° C. and a flow of 0.25 ml/min, with starting conditions, i.e., 0.1 M NaOH. A stepwise linear gradient with increasing amounts of sodium acetate was applied, going from 0.1 M NaOH and 0.1 M sodium acetate in 10 minutes, then to 0.1 M NaOH and 0.3 M sodium acetate for 25 minutes then increasing to 0.1 M NaOH and 1.0 M sodium acetate at 30 minutes which was kept for 10 minutes. Column reconditioning was achieved by a one minute gradient to initial conditions and subsequent running at initial conditions for 14 minutes. Eluted oligosaccharides were monitored by PAD detection. Chromatograms were recorded and analysed using Chromeleon 7.0 Peak identification was achieved by a procedure including the following steps: oxidized cellooligosaccharides were separated using a Dionex Ultimate 3000 UHPLC system carrying a Hypercarb 150×2.1 mm column (Thermo Scientific) running a gradient of water/0.1% TFA and acetonitrile/0.1% TFA (from 20 to 80% acetonitrile) according to the method developed by Westphal et al., 2010, Journal of Chromatography A 1217: 689-695. Eluted peaks were manually fractioned, freeze-dried, re-dissolved in MilliQ water and identified using MALDI-TOF MS. Pure oxidized cellooligosaccharides with known identity were then analyzed using the HPEAC method described above in order to establish the identity of the oxidized cellooligosaccharides generated by CelS2 and E7.

[6] = Filter paper cellulose degradation by […] with E7 (FIG. 28); type: biochemical
Method: 1 μM of the N-terminal CBM33 domain of CelS2 was incubated with 10 mg/ml AVICEL® in the presence of 0.8 mM of one of the reductants, or in the absence of any reductant. Reactions were run in 50 mM succinate buffer pH 5.5, 1 mM MgCl2, at 50° C. and 900 rpm (vertical agitation) for 20 hours. […] (glucose and cellobiose reported as [Glc]) released after incubation of 0.08 μl/ml […]™ (CC) in the presence or absence of 1 μM E7 and 2 mM reduced glutathione (RG) as external electron donor with 2 mg/ml filter paper cellulose. Reactions were incubated in 20 mM sodium acetate buffer pH 5.5, 1 mM MgCl2, at 50° C. and 900 rpm (horizontal agitation) for up to 50 hours.

[7] = Cellulase boosting properties of CelS2 at various pHs with monocomponent Cel7A; type: biochemical; details: Cel7A
Description: When probing the cellulose boosting properties of CelS2 at various pHs using monocomponent Cel7A as the cellulose hydrolytic component, pH 5.5 came out as the optimal pH for activity. […] The most obvious reason for the decrease in cellulose hydrolysis at increasing pH is the pH stability and efficiency of Cel7A. […] CelS2 is a bacterial enzyme that originates from Streptomyces species that are known to grow optimally on cellulosic substrates in approximately neutral pH conditions (Kontro et al., 2005, Letters in Applied Microbiology 41: 32-38.).

## [Cu+2] [Cu^2+]
[1]
  reactivation of EDTA treated enzyme: reactivated the enzyme
[1]; listed as copper
  reactivation of EDTA treated enzyme: able to reactivate CelS2
[1]; concentrations in the 1 mM range, not shown
  effect on CBM33 action at higher metal concentration: inhibits CBM33 action

B1: CBP21^H114A: H114A mutant variant of CBP21 (protein, UniProt P9WEM3 28-197, looked up, variant H114A)
AA10 family lytic …: HGYVESPASRAYQCKLQLNTQCGSVQYEPQSVEGLKGFPQAGPADGHIASADKSTFFELDQQTPTRWNKLNLKTGPNSFTWKLTARASTTSWRYFITKPNWDASQPLTRASFDLTPFCQFNDGGAIPAAQVTHQCNIPADRSGSHVILAVWDIADTANAFYQAIDVNLSK
[2]
  production of soluble oxidized oligosaccharides from beta-chitin: did not lead to production of soluble oxidized oligosaccharides
[3]
  potentiating effect on chitinase (ChiC) efficiency: unable to boost chitinase activity

B2: E7: single domain CBM33 from Thermobifida fusca (SEQ ID NO: 6) (protein, listed as Thermobifida fusca)
chain: MHRYSRTGKHRWTVRALAVLFTALLGLTQWTAPASAHGSVINPATRNYGCWLRWGHDHLNPNMQYEDPMCWQAWQDNPNAMWNWNGLYRDWVGGNHRAALPDGQLCSGGLTEGGRYRSMDAVGPWKTTDVNNTFTIHLYDQASHGADYFLVYVTKQGFDPTTQPLTWDSLELVHQTGSYPPAQNIQFTVHAPNRSGRHVVFTIWKASHMDQTYYLCSDVNFV
[4]; no external electron donor, 24 hours
  increase of glucose yield versus CELLUCLAST only: ~3.0 fold
[4]; no external electron donor, 120 hours
  increase of glucose yield versus CELLUCLAST only: ~3.5 fold
[4]; with external electron donor (1 mM reduced glutathione), 24 hours
  increase of glucose yield versus CELLUCLAST only: 3.5 fold
[4]; with external electron donor (1 mM reduced glutathione), 120 hours
  increase of glucose yield versus CELLUCLAST only: ~4.5 fold
[5]
  release of soluble native/oxidized cellooligosaccharides from AVICEL: soluble oligomeric products were observed
[6]; 1 μM E7, 0.08 μl/ml CC, 2 mg/ml filter paper, pH 5.5
  effect on CELLUCLAST activity: acts in synergy with CELLUCLAST™; also recorded: prolongs cellulase activity over time
[6]; E7 in absence of cellulases
  Glc or Glc2 released without cellulases: did not yield detectable amounts of Glc or Glc2

B3: Cel7A: family GH7 cellulase from Hypocrea jecorina purified from CELLUCLAST (protein, UniProt P62694 18-513, looked up)
Exoglucanase 1: QSACTLQSETHPPLTWQKCSSGGTCTQQTGSVVIDANWRWTHATNSSTNCYDGNTWSSTLCPDNETCAKNCCLDGAAYASTYGVTTSGNSLSIGFVTQSAQKNVGARLYLMASDTTYQEFTLLGNEFSFDVDVSQLPCGLNGALYFVSMDADGGVSKYPTNTAGAKYGTGYCDSQCPRDLKFINGQANVEGWEPSSNNANTGIGGHGSCCSEMDIWEANSISEALTPHPCTTVGQEICEGDGCGGTYSDNRYGGTCDPDGCDWNPYRLGNTSFYGPGSSFTLDTTKKLTVVTQFETSGAINRYYVQNGVTFQQPNAELGSYSGNELNDDYCTAEEAEFGGSSFSDKGGLTQFKKATSGGMVLVMSLWDDYYANMLWLDSTYPTNETSSTPGAVRGSCSTSSGVPAQVESQSPNAKVTFSNIKFGPIGSTGNPSGGNPPGGNRGTTTTRRPATTTGSSPGPTQSHYGQCGGIGYSGPTVCASGTTCQVLNPYYSQCL
[7]
  cellulase activity at pH 8.0: close to inactive

B4: CBM33 domain: recombinantly produced N-terminal CBM33 domain of CelS2 (SEQ ID NO: 22) (protein)
chain: HGVAMMPGSRTYLCQLDAKTGTGALDPTNPACQAALDQSGATALYNWFAVLDSNAGGRGAGYVPDGTLCSAGDRSPYDFSAYNAARSDWPRTHLTSGATIPVEYSNWAAHPGDFRVYLTKPGWSPTSELGWDDLELIQTVTNPPQQGSPGTDGGHYYWDLALPSGRSGDALIFMQWVRSDSQENFFSCSDVVFDGG
modifications: Streptomyces coelicolor
[5]
  release of soluble native/oxidized cellooligosaccharides from AVICEL: shows activity on AVICEL® without its CBM2, although lower than the activity of the whole protein

Source: patent US10889844B2, “Methods of degrading or hydrolyzing a polysaccharide” (Novozymes A/S, priority 2010, dated 2021)
